Measurements published in publication PMC7021470 (mSphere, 2020).
Like-named read-outs stand apart in the source and are kept apart here.

Experiments:
[1] = system: E. faecalis 30054A; experiment: Sensitivity of GLP-1-inhibitory activity to TPEN; format: cell-based, Enterococcus faecalis; conditions: E. faecalis 30054A grown overnight with increasing amounts of TPEN; supernatants incubated with 500 pM GLP-1, 4 h at room temperature; ELISA; n = 3
Description: Supplementary file : FIG S1 Sensitivity of GLP-1-inhibitory activity to TPEN. […] Data were obtained from three (n = 3) independent experiments (replicates 1 to 3) with mean ± SD shown for each replicate (technical variation). Linear regression with R^2 goodness-of-fit value and P value are reported. Download FIG S1, EPS file, 0.1 MB.

[2] = molecular target: T1, E. faecalis metalloprotease GelE (bacterial supernatants) (Enterococcus faecalis, UniProt Q833V7); conditions: 4 h at room temperature; for quantity (%) of substrate remaining after incubation with supernatant, dilution 0.0001x: E. faecalis 30054A supernatant diluted 0.0001x in bacterial culture medium; for quantity (%) of substrate remaining after incubation with supernatant, dilution 0.0001x / quantity (%) of substrate remaining after incubation with supernatant, dilution 0.001x / quantity (%) of substrate remaining after incubation with supernatant, dilution 0.01x / quantity (%) of substrate remaining after incubation with supernatant, dilution 0.1x / quantity (%) of substrate remaining after incubation with supernatant, dilution 1x: recombinant substrate, Luminex (Milliplex) read-out, mean ± SD; for quantity (%) of substrate remaining after incubation with supernatant, dilution 0.0001x / quantity (%) of substrate remaining after incubation with supernatant, dilution 0.001x / quantity (%) of substrate remaining after incubation with supernatant, dilution 0.01x / quantity (%) of substrate remaining after incubation with supernatant, dilution 0.1x / degradation of substrate by GelE (in words): n = 3; for quantity (%) of substrate remaining after incubation with supernatant, dilution 0.001x: E. faecalis 30054A supernatant diluted 0.001x in bacterial culture medium; for quantity (%) of substrate remaining after incubation with supernatant, dilution 0.01x: E. faecalis 30054A supernatant diluted 0.01x in bacterial culture medium; for quantity (%) of substrate remaining after incubation with supernatant, dilution 0.1x: E. faecalis 30054A supernatant diluted 0.1x in bacterial culture medium; for degradation of substrate by GelE (in words): undiluted supernatants of E. faecalis 30054A, 30002, OG1RF, ΔgelE, ΔsprE, S613, Luminex, Fig. 4; for quantity (%) of substrate remaining after incubation with supernatant, dilution 1x: E. faecalis 30054A supernatant, 1x (undiluted), n = 3 independent experiments
T1 sequence (Q833V7 whole entry, looked up): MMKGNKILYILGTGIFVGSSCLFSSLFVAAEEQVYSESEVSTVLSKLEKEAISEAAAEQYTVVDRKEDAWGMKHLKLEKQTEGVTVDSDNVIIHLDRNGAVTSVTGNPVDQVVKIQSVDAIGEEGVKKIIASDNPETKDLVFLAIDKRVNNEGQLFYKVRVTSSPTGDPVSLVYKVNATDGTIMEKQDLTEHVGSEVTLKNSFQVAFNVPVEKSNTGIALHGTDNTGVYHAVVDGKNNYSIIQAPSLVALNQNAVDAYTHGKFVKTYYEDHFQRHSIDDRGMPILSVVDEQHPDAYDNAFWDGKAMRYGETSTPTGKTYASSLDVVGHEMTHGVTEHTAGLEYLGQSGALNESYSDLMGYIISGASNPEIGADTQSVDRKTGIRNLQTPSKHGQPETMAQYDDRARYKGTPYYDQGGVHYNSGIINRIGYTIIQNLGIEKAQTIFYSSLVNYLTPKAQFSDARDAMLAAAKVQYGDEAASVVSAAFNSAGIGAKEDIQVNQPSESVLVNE
Description: To gain a better understanding of the substrate preference of GelE, we also tested the ability of diluted supernatants of E. faecalis 30054A, from 1 to 0.0001×, to degrade the same panel of metabolic substrates (Table 1).
Bacterial supernatants were collected from an overnight culture by centrifugation as described above, diluted in bacterial culture medium as indicated, and incubated with recombinant protein (GenScript; Sigma, Tocris) of each analyte for 4 h at room temperature, followed by storage at –80°C until ready for analyte quantification. The Milliplex multiplex assay was run according to the protocol provided by the manufacturer.

[3] = molecular target: T2, E. faecalis metalloprotease GelE (bacterial supernatants) (Enterococcus faecalis, UniProt Q833V7); conditions: 500 pM recombinant GLP-1; 4 h at room temperature; ELISA; vs GM17 medium control; mean ± SD, n = 4
Description: Two secreted proteases from E. faecalis are well known, the serine protease SprE and the metalloprotease GelE, both of which are regulated by the two-component, quorum-sensing fsr (faecalis system regulator) operon ([9]) (Fig. 2A). We obtained strains of E. faecalis containing null mutations in sprE (TX5243), gelE (TX5264), and fsrB (TX5266), as well as a gelE sprE double mutant (TX5128), all generated in the commonly used wild-type OG1RF E. faecalis strain ([10]).
Supernatants from E. faecalis protease mutants and controls (OG1RF, TX5266 [fsrB mutant], TX5264 [gelE mutant], TX5243 [sprE mutant], and TX5128 [gelE sprE mutant]) were collected from an overnight culture grown in GM17 aerobically at 37°C by centrifugation, as described above.

[4] = molecular target: E. faecalis metalloprotease GelE (apical supernatants) (Enterococcus faecalis, UniProt Q833V7); conditions: T84 transwell; approximately 500 pM GLP-1 in DMEM-F-12 basolateral; 16 h, 37°C, 5% CO2; ELISA; compared to DMEM-F-12 control; mean ± SD, four independent experiments
Description: Growth cultures and assays of T84 cells were performed by methods described previously, with slight modifications ([26]). T84 human colonic epithelial cells (ATCC CCL-248) were propagated in tissue culture-treated T75 flasks (Cellstar), as indicated by the ATCC. When between 90 and 100% confluence, T84 cells were treated with 0.25% trypsin and plated onto 24-well, 3.0-μm polycarbonate membrane transwell filters (catalog no. 3415; Costar) at a density of 8 × 10^4 cells/well.
To prepare bacteria, on the day of the assay E. faecalis strains were subcultured 1% (vol/vol) from an overnight culture into GM17 and grown for 5 h, as described above. Whole-culture (cells plus supernatant) samples were diluted in DMEM–F-12 (Gibco) to a concentration of 1 × 10^7 CFU/ml, and supernatant samples were diluted 50% in DMEM–F-12. All samples were neutralized to a pH of 6.8 to 7 using 3 M NaOH.
A final TEER measurement was taken for each monolayer.

[5] = molecular target: T2, E. faecalis metalloprotease GelE (bacterial supernatants); format: in vitro ADME; set-up: The secreted metalloprotease GelE serves E. faecalis by degrading misfolded surface proteins; endogenous in cells; host or cells: Enterococcus faecalis strains OG1RF, 30054A, 30002 (and TX5243 sprE mutant); culture supernatants; conditions: E. faecalis 30054A and 30002 supernatants; 200 pM GLP-1; 30 min at 100°C after incubation; ELISA; n = 2
Description: If GelE was targeting the ELISA and not GLP-1, one would expect to see high levels of GLP-1 in a sample heat treated after incubation with GLP-1, ensuring no further degradation by GelE during the ELISA.
Supplementary file : FIG S4 GLP-1-inhibitory activity with heat treatment pre- and postincubation. […] Data were obtained from two independent experiments (n = 2) and are expressed as the mean ± SD. Download FIG S4, PDF file, 0.02 MB.

[6] = system: NCI-H716 cells; experiment: GLP-1 secretion screen with bacterial supernatants on NCI-H716 cells (ELISA); format: cell-based, human; conditions: 2 h incubation at 37°C, total GLP-1 by ELISA, medium control = 100%, PMA at 2 μM, mean ± SD, n = 3
Description: NCI-H716 (American Type Culture Collection [ATCC] CCL-251) cells were grown in RPMI (ATCC) medium supplemented with 10% (vol/vol) heat-inactivated newborn calf serum (NBCS; Gibco). Cultures were maintained at a concentration of 2 × 10^5 to 8 × 10^5 cells/ml and used at passages 15 to 40 for cell studies. For cell studies, 96-well plates were coated with 100 μl of 10 mg/ml Matrigel (BD Biosciences) for 2 h at room temperature. Following coating, NCI-H716 cells were seeded at a concentration of 1 × 10^5 cells/well in Dulbecco’s modified Eagle’s medium (DMEM) supplemented with 10% (vol/vol) NBCS, as determined by trypan blue staining using a hemocytometer. Two days later, lyophilized bacterial supernatants were resuspended in Krebs buffer (Sigma) containing 0.2% (wt/vol) bovine serum albumin (BSA) and 0.03% (wt/vol) bovine bile and incubated on the NCI-H716 cells at 37°C with 5% CO2. […] Cell viability was monitored using the PrestoBlue cell viability reagent (Thermo Fisher Scientific), following the manufacturer’s instructions.

Molecule | quantity (%) of substrate remaining after incubation with supernatant, dilution 0.0001x [2] | quantity (%) of substrate remaining after incubation with supernatant, dilution 0.001x [2] | quantity (%) of substrate remaining after incubation with supernatant, dilution 0.01x [2] | quantity (%) of substrate remaining after incubation with supernatant, dilution 0.1x [2] | degradation of substrate by GelE (in words) [2] | quantity (%) of substrate remaining after incubation with supernatant, dilution 1x [2] | further results
c1ccc(CN(CCN(Cc2ccccn2)Cc2ccccn2)Cc2ccccn2)nc1 [TPEN, N,N,N′,N′-tetrakis(2-pyridylmethyl)ethane-1,2-diamine] |  |  |  |  |  |  | effect on GLP-1 degradation by supernatant [1]: reduction in GLP-1 degradation
tumor necrosis factor alpha [TNFα] | 98.12 ± 1.67% | 99.28 ± 1.25% | 99.72 ± 0.48% | 87.87 ± 19.41% | less striking but still statistically significant |  | 
CC[C@H](C)[C@H](NC(=O)[C@H](Cc1ccccc1)NC(=O)[C@H](CCC(=O)O)NC(=O)[C@H](CCCCN)NC(=O)[C@H](C)NC(=O)[C@H](C)NC(=O)[C@H](CCC(N)=O)NC(=O)CNC(=O)[C@H](CCC(=O)O)NC(=O)[C@H](CC(C)C)NC(=O)[C@H](Cc1ccc(O)cc1)NC(=O)[C@H](CO)NC(=O)[C@H](CO)NC(=O)[C@@H](NC(=O)[C@H](CC(=O)O)NC(=O)[C@H](CO)NC(=O)[C@@H](NC(=O)[C@H](Cc1ccccc1)NC(=O)[C@@H](NC(=O)CNC(=O)[C@H](CCC(=O)O)NC(=O)[C@H](C)NC(=O)[C@@H](N)Cc1c[nH]cn1)[C@@H](C)O)[C@@H](C)O)C(C)C)C(=O)N[C@@H](C)C(=O)N[C@@H](Cc1c[nH]c2ccccc12)C(=O)N[C@@H](CC(C)C)C(=O)N[C@H](C(=O)N[C@@H](CCCCN)C(=O)NCC(=O)N[C@@H](CCCNC(=N)N)C(N)=O)C(C)C [GLP-1, glucagon-like peptide-1] |  |  |  |  |  |  | GLP-1 level after incubation with OG1RF (wild-type) supernatant [3]: −0.06% ± 0.76%; GLP-1 level after incubation with ΔsprE mutant (TX5243) supernatant [3]: −0.14% ± 0.74%; GLP-1 in the basolateral compartment, apical 30054A supernatant [4]: 3.1% ± 2.68%; GLP-1 in the basolateral compartment, apical OG1RF supernatant [4]: 1.6% ± 0.46%; GLP-1 levels, supernatants heat treated after incubation with GLP-1 [5]: low GLP-1 levels
monocyte chemoattractant protein-1 [MCP-1] | 98.33 ± 2.89% | 99.99 ± 0.01% | 99.92 ± 0.14% | 74.03 ± 44.98% | less striking but still statistically significant |  | 
interleukin 6 [IL-6] | 95.74 ± 6.94% | 95.75 ± 7.36% | 99.91 ± 0.15% | 99.78 ± 0.37% | did not observe consistent degradation | 80.28 ± 24.77% | 
insulin | 99.23 ± 1.33% | 99.97 ± 0.05% |  |  | less striking but still statistically significant | 57.29 ± 7.69% | 
leptin | 97.77 ± 3.87% | 99.78 ± 0.39% | 72.29 ± 1.72% | 7.95 ± 4.72% |  | 2.15 ± 0.96% | quantity (%) of substrate remaining after incubation with supernatant, dilution 0.1x ([2]; listed as leptin): 7.95% ± 4.72%
CCCCCCCCCCCCCC(=O)O[C@@H]1[C@@H](C)[C@@]2(O)[C@@H](C=C(CO)C[C@]3(O)C(=O)C(C)=C[C@@H]23)[C@@H]2C(C)(C)[C@]12OC(C)=O [PMA, 4-Phorbol 12 myristate 13-acetate] |  |  |  |  |  |  | GLP-1 compared to the medium controls [6]: 200%
